Measured values as given in the RNAGym collection of RNA variant scans (doi:10.1073/pnas.2313332121).

B1: TPR t1 (parent)
chain: GACCAAUCUGCCCUCAGAGCUCGAGAACAUCUUCGGAUGCAGAGGAGGCAGGCUUCGGUGGCGCGAUAGCGCCAACGUCCUCAACCUCCAAUGCAUCCCACCACAUGAUGAUGCCUGAAGAGCCUUGGUUUUUUG

Variants of: B1
Experiment: polymerase ribozyme fitness, log enrichment relative to wild type (log ratio); higher = more active; in vitro selection for triplet polymerase activity
In short: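 Fitness measures genotype enrichment against wild-type enrichment on a logarithmic scale, with inverse-variance-weighted averaging of replicates. The logarithm is base 2, and genotypes were kept only with ≥10 input reads and ≥1 read per output in Illumina sequencing. The sequenced libraries came from one triplicate in vitro selection round, including frozen incubation at −7 °C, of PCR-built, transcribed mutant libraries of each subunit of a heterodimeric triplet polymerase ribozyme.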

| Variant | polymerase ribozyme fitness (log ratio) |
| --- | --- |
| GACCAAUCUGCCCACAGAGCUCGAGAACAUCUUCGGAUGCAGAGGAGGCAGGCUUCGGUGGCGCGAUAGGGCCAACGUCCUCAACCUCCAAUGCAUCCCACCACAUGAUGAUGCCUGAAGAGCCUCGGUUUUUUU [U14A C70G U126C G135U] | -4.99 |
| GACCAAUCUGCCCACAGAGCUCGAGAACAUCUUCGGAUGCAGAGGAGGCAGGCUUCGGUGGCGCGAUAGUGCCAACGUCCUCAACCUCCAAUGCAUCCCACCACAUGAUGAUGCCUGAAGAGCCUCGGUUUUUUU [U14A C70U U126C G135U] | -3.92 |
| GACCAAUCUGCCCACAGAGCUCGAGAACAUCUUCGGAUGCAGAGGAGGCAGGCUUCGGUGGCGCGAUAGCGCCAACGUCCUCAACCUCCGAUGCAUCCCACCACAUGAUGAUGCCUGAAGAGCCUUGGUUUUUUG [U14A A90G] | -2.78 |
| GACCAAUCUGCCCACAGAGCUCGAGAACAUCUUCGGAUGCAGAGGAGGCAGGCUUCGGUGGCGCGAUAGCGCCAACGUCCUCUACAUCCAAUGCAUCCCACCACAUGAUGAAGCCUGAAGAGCCUUGGUUAUUUG [U14A A83U C86A U112A U131A] | -2.42 |
| GACCAAUCUGCCCACAGAGCUCGAGAACAUCUUCGGAUGUAGACGAGGAAGGCUUCGGUGGCGCGAUAGCGCCAACGUCCUCAACCUCCAAUGCAUCCCACCACAUGAUGAUGCCUGAAGAGCCUUGGUUUUUUG [U14A C40U G44C C49A] | -3.39 |
| GACCAAUCUGCCCACAGAGCUCGAGAACAUCUUCGGAUGCAGAGGAGGCAGGCUUCGGUGGCGCGAUAGUGCCAACGUCCUCAACCUCCAAUGCAUCCCACCACAUGAUGAUGCCUGAAGAGCCUUGGUUUUUUG [U14A C70U] | -1.67 |
| GACCAAUCUGCCCACAGAGCUCGAGAACAUCUUCGGAUGCAGAGGAGGCAGGCUUCGGUGGCGCGAUAGCGCCAACGUCCUCAAUCUCCAAUGCAUCCCACCACAUGAUGAUGCCUGAAGAGCCUUGGUUUUUUG [U14A C85U] | -2.79 |
| GACCAAUCUGCCCACAGAGCUCGAGAACAUCUUCGGAUGCAGAGGAGGCAGGCUUCGGUGGCGCGAUAGCGCCAACGUCCUCAACCUCCAAUGCAUCCCACCACAUGAUGAUGCCUGAAGUGCCUUGGUUUUUUG [U14A A121U] | 1.98 |
| GACCAAUCUGCCCACAGAGCUCGAGAACAUCUUCGGAUGCAGAGGAGGCAGGCUUCGGUGGGGCGAUAGCGCCAACGUCCUCAACCUCUAAUGCAUCCCACCACAUGAUGAUGCCUGAAGAGACUUGGUUUUUUG [U14A C62G C89U C123A] | -3.6 |
| GACCAAUCUGCCCACAGAGCUCGAGAACAUCUUCGGAUGCAGAGGAGGUAGGCUUCGGUCGCGCGAUAGCGCCAACGUCCUCAACCUCCAAUGCAUCCCACCCCAUGAUGAAGCCUGAAGAGGCUUGGUUUUUUG [U14A C49U G60C A103C U112A C123G] | -6.39 |
| GACCAAUCUGCCCACAGAGCUCGAGAACAUCUUCGGAUGCAGAGGAGGCAGGCUUCGGUGGCGCGAUAGCGCCAACGUCCUCAACCUCCACUGCAUCCCACCACAUGAUGAUGCGUGAAGAGCCUUGGUUUUAUG [U14A A91C C115G U133A] | -4.89 |
| GACCAAUCUGCCCACAGAGCUCGAGAACAUCUUCGGAUGCAGAGGAGGCAGGCUUCGGUGGCGCGAUAGCGCCAACGUCCUCAACCUCCAAUGCAUCCCACCACAUGAUGCUGCAUGAAGAGCCUUGGUUUUUUG [U14A A111C C115A] | -5.18 |
| GACCAAUCUGCCCACAGAGCUCGAGAACAUCUUCGGAUGCAGAGGAGGCAGGCUUCGGUGGCGCGAUAGCGUCAACGUCCUCAAACUCCAAUACAUCCCACCACAUGAUGAUGCCUGAAGAGCCUUGGUUUUUUG [U14A C72U C85A G93A] | -3.6 |
| GACCAAUCUGCCCAAAGAGCUCGAGAACAUCUUCGGAUGCUGAAGAGGCAGGCUUCGGUGGCGCGAUAGCGCCAACGUCCUAAACCUCCAAGGCAUCCCACCACAUGAUGAUGCCUGAAGAGACUUGGUUUUUUG [U14A C15A A41U G44A C82A U92G C123A] | -5.11 |
| GACCAAUCUGCCCAUAGAGCUCGAGAACAUCUUCGGAUGCAGAGGAGGCAGGCUUCGGUGGCGCGAUAGCGCCAACGUCCUCAACCUUCAAUGCACCCCACCACAUGAUGAUGCCUGAAUAGCCUUGGUUUUUUG [U14A C15U C88U U96C G120U] | -1.94 |
| GACCAAUCUGCCCACAGAGCUCGAGAACAUCUUCGGAUGCAGAGGAGGCAGGCUUCGGUGGCGCGAUAGCGCCGACCUCCUCAACCUCCAAUGCAUCCCACCACAUGAUGAUGCCUGAACAGCCUUGGUUUUUUG [U14A A74G G77C G120C] | -0.447 |
| GACCAAUCUGCCCACAGAGCUCGAGAACAUCUUCGGAUGCAGAGGAGGUAGGCUUCGGUGGCGCGAUAGCACCAACGUCCUCAACCUCCAAUGCAUCCCACCACAUGAUGAUGCCUGAAGAGCCUUGGUUUUUUG [U14A C49U G71A] | -3.73 |
| GACCAAUCUGCCCACAGAGCUAGAGAACAUCUUCGGAUGCAGAGGAGGCAGGCUUCGGUGCCGCAAUAGCGCCAACGUCCUCAACCUCCAAUGCAUCCCAUCACAUGAUGAUGCCUGAACAGCCUUGGUUUUUUG [U14A C22A G61C G65A C101U G120C] | -7.89 |
| GACCAAUCUGCCCACAGAGCUCGAGAACAUCUUCGGAUGAAGAGGAGGCGGGCUUCGGUGGCGCGAUAGCGCCGACGUCCUCAACCUCCAAUGCAUCCCACCACAUGAUGAUGCCUUAAGAGCCUUGGUUUUUUG [U14A C40A A50G A74G G117U] | -5.9 |
| GACCAAUCUGCCCACAGAGCUCGAGAACAUCUUCGGAUGCAGAGGAGGCAGGCUUCGGUGGCGCGAUAGCGCCAACGUCCUCAACCUCCAAUGCAUCCCACCACGUGAUGAUGCCUGAAGAGCCUUGGUUUUUUG [U14A A105G] | -5.21 |
| GACCAAUCUGCCCAAAGAGUUCGAGAACAUCUUCGGAUGCAGAGGAGGCAGGCUGCGGUGGCGCGAUAGCGCCAACGUCCUCAACCUCCAAUGCAUCCCACCACAUGAUGAUGCCUGAAGAGCCUUGGUUUUUUG [U14A C15A C20U U55G] | -3.71 |
